Source: US20220119472A1 (ORIONIS BIOSCIENCES, published 2022)
Substitutions are numbered along the chain they refer to.

T1: recombinant His6-tagged extracellular domain of human Clec4C (C-type lectin domain family 4, member C) (human, UniProt Q8WTT0 44-213)
T1 construct: Same antigen for immunisation, panning and ELISA; also called His-Clec4C(EC); pMET7-SIgK-His-Clec4C(EC)
T1 sequence: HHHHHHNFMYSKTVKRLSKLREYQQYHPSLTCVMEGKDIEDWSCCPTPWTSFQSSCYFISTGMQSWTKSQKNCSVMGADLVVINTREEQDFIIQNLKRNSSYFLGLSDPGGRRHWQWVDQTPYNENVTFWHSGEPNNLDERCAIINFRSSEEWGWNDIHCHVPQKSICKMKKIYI

B1: 2CL91 (VHH)
VHH: QVQLQESGGGLVQAGDSLRLSCTASERTFSNYAMGWFRLAPGKERKFVAAISTSGGTTDYVDSVKGRFTISRDNAKNTVYLQMNSLKPEDTAVYYCAARLDFSSTDLYTTAPRYPYWGQGTQVTVSS
notes: pMECS VHH-HA-His6; TG1 periplasmic extract
B2: 1CL47 (VHH)
VHH: QVQLQESGGGLVQAGGSRRLSCAASGRTFINYAMGWFRQAPGKEREFVAAISTSGSNTYLADSLKARFTISRDNAKNTVYLQIRSLNPEDTAVYYCAARLSFDDSAYYTSTLRYAYWGQGTQVTVSS
notes: as for B1
B3: 2CL16 (VHH)
VHH: QVQLQESGGGLVQPGGSLRLSCAASGDTFSNYAMGWFRQAPGKAREFVAAISRSAGSTYHVDSVKGRFTISRDNAMNTVYLQMNSLQPEDTAHYYCAARLTFNLIDYYTAETRYTYWGQGTQVTVSS
notes: as for B1
B4: 2CL56 (VHH)
VHH: QVQLQESGGGSVQAGDSLTLSCIASGRTFSSLAMGWFRQAPGKEREFVAAINWSGDSTYYSDSMKGRLTMSRDNAKNTVFLQMNSLEPEDTAVYVCAADASGYGSAWPDRYDYWGQGTQVTVSS
notes: as for B1
B5: 1CL56 (VHH)
VHH: QVQLQESGGGLVQPGGSLTLSCGASGFDFSDYVMYWLRQAPGKGLQWVSSINASGVRTYYVDALKGRFTISRDNAKNTLYLQIDDLKPEDTGLYYCARVGQAPMYFGVDFWGNGTQVTVSS
notes: as for B1
B6: 2CL59 (VHH)
VHH: QVQLQESGGGLVQPGDSLTLSCADSGRTFSNYAMGWFHQAPGKEREFVAAISTSGGSTAYADSVKGRFTISRDNAKNTVYLQMNNLKPEDTAVYYCAARLSFSGSSYYQGPLQYPYWGQGTQVTVSS
notes: as for B1
B7: 1CL81 (VHH)
VHH: QVQLQESGGGLVQAGNSLKLSCAASGRNLAYYVMGWFRQAPGREREPVATLTRGGDDTYCADSVKGRFTISSDNAKNTVYLQMNNLKPEDTAIYTCAARLAVLSSNTYCSGLWDYWGQGTQVTVSS
notes: as for B1
B8: 1CL88 (VHH)
VHH: QVQLQESGGGLVQAGGSLRLSCAASGRIFSNSAMGWFRQVLGKEREFVAAISENSSILYYTASVKGRFTISRDNDKNTVYLQMTSLKAEDTAVYYCAGYGSTTIRTTTRPTKWGQGTQVTVSS
notes: as for B1
B9: 2CL26 (VHH)
VHH: QVQLQESGGGWVQPGDSLRLSCAASGFTFSDYAVGWFRQAPGKEREFVARITRLGNGPYYSASVKGRFTISRDNARDMAYLKMDALTPEDTATYYCAAGRTLASTHDTKTSPQTYDYWGLGTQVTVSS
notes: as for B1
B10: 2CL55 (VHH)
VHH: B9 VHH with F27S, L120Q
notes: as for B1
B11: 2CL15 (VHH)
VHH: QVQLQESGGGLVQPGGSVRLSCAASVFTLNNFIMSWVRQAPGKGLERVSDINMVGITDYSDPVKGRFTISRDNKQNTVYLQGNTLKPEDTAVYFCAAGRPIGLYYPSPRIRDYNDWGQGTQVTVSS
notes: as for B1
B12: 2CL65 (VHH)
VHH: QVQLQESGGGLVQPGGSLRLSCAASGRIFSINAMGWYRQAPGKQRELVAVISRSGISNYVDSVKGRFTISRDNAKNTVYLQMNSLNPEDTADYYCNADVLLTFNKREDSWGQGTQVTVSS
notes: as for B1
B13: 2CL7 (VHH)
VHH: QVQLQESGGGLVQAGDSLRLSCAPSGFTFDGYAIGWFRQAPGKEREKVACINKSDGLTYYEDSVKGRFTISSDTAKNTIHLQMNSLKPDDTAVYYCAAAWECDYAPADFGSWGQGTQVTVSS
notes: as for B1
B14: 2CL18 (VHH)
VHH: B13 VHH with D16G
notes: as for B1
B15: 2CL34 (VHH)
VHH: QVQLQESGGGLVQAGGSLRLSCAASGRTFTNYAMGWFRQAPGKEREFVATISRSGSMPYYADSVKGRFTISRDNAKNMVYLQMNSLKPEDTAVYYCAANVLVTTTRLDQYDSWGQGTQVTVSS
notes: as for B1
B16: 2CL66 (VHH)
VHH: QVQLQESGGGLVQAGGSLRLSCAASERTFTNYAMGWFRQGPGKDRAFVAAISRSGSSTSYADSVKGRFTISRDNAENILYLQMNSLKPEDTAVYYCAAAPLVLKTTPGAYNYWGQGTQVTVSS
notes: as for B1
B17: 2CL40 (VHH)
VHH: QVQLQESGGGLVQTGGSLRVSCAASGRSISNYNMGWFRQPPGKEREIVGSIRWDGDSTYYADSVKGRFTISRDNTKNTVYLQMNSLKSEDTADYYCAATVSSFDESKNPRWYPYWGQGTQVTVSS
notes: as for B1
B18: 2CL29 (VHH)
VHH: QVQLQESGGGLVQPGDSLRLSCTASERTFTNYAMAWFRQAPGKERDVLATISRSGSSTFYAESVKGRFTISRDNTKNTVYLQMNSLEPEDTAVYYCAARPLVPSEDPDNYNYWGQGTQVTVSS
notes: as for B1
B19: 2CL81 (VHH)
VHH: QVQLQESGGGLVQAGDSLKLSCAASGRTFSTYAMGWFRQAPGKERDVVAAIATNGGTTYYVDSVKGRFTISRDNAQNRVYLQMNSLKPEDTAIYYCAARLSFGSGYYTNKLNYAYWGQGTQVTVSS
notes: as for B1
B20: 2CL57 (VHH)
VHH: QVQLQESGGGLVQAGGSLKLSCAASGRTFSSYAMGWFRQAPGKERDFVAVISWRNNTYYADSVKGRFTISRDNAKNTVHLQMNSLKSEDTAVYYCAAAGLGAVVAGMSDYDYWGQGTQVTVSS
notes: as for B1
B21: 2CL46 (VHH)
VHH: QVQLQESGGGLVQAGGSLRLSCAVSGRTFSSYAMGWFRQARGKEREFVAAVEWSSGSTFYTDSVKGRFAISRDIAKNTVYLQMNSLKPEDTAVYYCAGDHTGKLVFSKTSDYWGQGTQVTVSS
notes: as for B1

Molecular target: T1, recombinant His6-tagged extracellular …
Test: ELISA, antigen-coated vs uncoated blocked wells
Source text: (§1) In total, 190 colonies from rounds 1 and 2 were randomly selected and analyzed by ELISA for the presence of antigen-specific VHH in their periplasmic extracts (ELISA using crude periplasmic extracts from TG1 cultures including soluble VHH). The antigen used for ELISA screening was the same as the one used for immunization, using uncoated blocked wells as negative control.

ELISA ratio coated/uncoated | Binder
5.56 | B1
9.79 | B2
14.1 | B3
4.72 | B4
4.82 | B5
3.98 | B6
4.72 | B7
3.42 | B8
21.4 | B9
15 | B10
12.8 | B11
9.33 | B12
6.57 | B13
4.74 | B14
3.83 | B15
18.6 | B16
13.3 | B17
6.84 | B18
8.32 | B19
4.38 | B20
4.82 | B21

Molecular target: T1, recombinant His6-tagged extracellular …
Test: ELISA, TG1 periplasmic extract on coated antigen
Source text: as §1

ELISA coated | Binder
4 | B1
4 | B2
2.03 | B3
0.999 | B4
3.89 | B5
3.76 | B6
1.12 | B7
4 | B8
4 | B9
1.7 | B10
3.9 | B11
1.72 | B12
0.664 | B13
0.491 | B14
2.8 | B15
2.04 | B16
3.11 | B17
2.24 | B18
3.69 | B19
0.922 | B20
3.3 | B21
